Measurements reported in IntAct's records for PubMed 16785445.

B1: Interferon-induced, double-stranded RNA-activated protein kinase (Homo sapiens), P19525 (parent)
chain: MAGDLSAGFFMEELNTYRQKQGVVLKYQELPNSGPPHDRRFTFQVIIDGREFPEGEGRSKKEAKNAAAKLAVEILNKEKKAVSPLLLTTTNSSEGLSMGNYIGLINRIAQKKRLTVNYEQCASGVHGPEGFHYKCKMGQKEYSIGTGSTKQEAKQLAAKLAYLQILSEETSVKSDYLSSGSFATTCESQSNSLVTSTLASESSSEGDFSADTSEINSNSDSLNSSSLLMNGLRNNQRKAKRSLAPRFDLPDMKETKYTVDKRFGMDFKEIELIGSGGFGQVFKAKHRIDGKTYVIKRVKYNNEKAEREVKALAKLDHVNIVHYNGCWDGFDYDPETSDDSLESSDYDPENSKNSSRSKTKCLFIQMEFCDKGTLEQWIEKRRGEKLDKVLALELFEQITKGVDYIHSKKLIHRDLKPSNIFLVDTKQVKIGDFGLVTSLKNDGKRTRSKGTLRYMSPEQISSQDYGKEVDLYALGLILAELLHVCDTAFETSKFFTDLRDGIISDIFDKKEKTLLQKLLSKKPEDRPNTSEILRTLTVWKKSPEKNERHTC
partner: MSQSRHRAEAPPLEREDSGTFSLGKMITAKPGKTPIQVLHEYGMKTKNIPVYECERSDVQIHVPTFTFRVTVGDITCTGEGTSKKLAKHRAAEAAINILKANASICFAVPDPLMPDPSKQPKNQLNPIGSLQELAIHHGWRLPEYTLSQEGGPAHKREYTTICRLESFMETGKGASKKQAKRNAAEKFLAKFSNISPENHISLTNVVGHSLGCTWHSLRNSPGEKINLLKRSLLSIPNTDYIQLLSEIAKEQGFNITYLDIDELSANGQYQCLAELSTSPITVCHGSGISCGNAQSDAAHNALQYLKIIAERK

Variants of: B1
Details: with PRKRA

Effect of a mutation on the interaction, disrupting interaction strength:
MAGDLSAGFFMEELNTYRQKQGVVLKYQELPNSGPPHDRRFTFQVIIDGREFPEGEGRSKKEAKNAAAKLAVEILNKEKKAVSPLLLTTTNSSEGLSMGNYIGLINRIAQKKRLTVNYEQCASGVHGPEGFHYKCKMGQKEYSIGTGSTKQEAKQLAAKLAYLQILSEETSVKSDYLSSGSFATTCESQSNSLVTSTLASESSSEGDFSADTSEINSNSDSLNSSSLLMNGLRNNQRKAKRSLAPRFDLPDMKETKYTVDKRFGMDFKEIELIGSGGFGQVFKAKHRIDGKTYVIKRVKYNNEKAEREVKALAKLDHVNIVHYNGCWAGFDYDPETSDDSLESSDYDPENSKNSSRSKTKCLFIQMEFCDKGTLEQWIEKRRGEKLDKVLALELFEQITKGVDYIHSKKLIHRDLKPSNIFLVDTKQVKIGDFGLVTSLKNDGKRTRSKGTLRYMSPEQISSQDYGKEVDLYALGLILAELLHVCDTAFETSKFFTDLRDGIISDIFDKKEKTLLQKLLSKKPEDRPNTSEILRTLTVWKKSPEKNERHTC [D328A]
MAGDLSAGFFMEELNTYRQKQGVVLKYQELPNSGPPHDRRFTFQVIIDGREFPEGEGRSKKEAKNAAAKLAVEILNKEKKAVSPLLLTTTNSSEGLSMGNYIGLINRIAQKKRLTVNYEQCASGVHGPEGFHYKCKMGQKEYSIGTGSTKQEAKQLAAKLAYLQILSEETSVKSDYLSSGSFATTCESQSNSLVTSTLASESSSEGDFSADTSEINSNSDSLNSSSLLMNGLRNNQRKAKRSLAPRFDLPDMKETKYTVDKRFGMDFKEIELIGSGGFGQVFKAKHRIDGKTYVIKRVKYNNEKAEREVKALAKLDHVNIVHYNGCWDAFDYDPETSDDSLESSDYDPENSKNSSRSKTKCLFIQMEFCDKGTLEQWIEKRRGEKLDKVLALELFEQITKGVDYIHSKKLIHRDLKPSNIFLVDTKQVKIGDFGLVTSLKNDGKRTRSKGTLRYMSPEQISSQDYGKEVDLYALGLILAELLHVCDTAFETSKFFTDLRDGIISDIFDKKEKTLLQKLLSKKPEDRPNTSEILRTLTVWKKSPEKNERHTC [G329A]
MAGDLSAGFFMEELNTYRQKQGVVLKYQELPNSGPPHDRRFTFQVIIDGREFPEGEGRSKKEAKNAAAKLAVEILNKEKKAVSPLLLTTTNSSEGLSMGNYIGLINRIAQKKRLTVNYEQCASGVHGPEGFHYKCKMGQKEYSIGTGSTKQEAKQLAAKLAYLQILSEETSVKSDYLSSGSFATTCESQSNSLVTSTLASESSSEGDFSADTSEINSNSDSLNSSSLLMNGLRNNQRKAKRSLAPRFDLPDMKETKYTVDKRFGMDFKEIELIGSGGFGQVFKAKHRIDGKTYVIKRVKYNNEKAEREVKALAKLDHVNIVHYNGCWDGFAYDPETSDDSLESSDYDPENSKNSSRSKTKCLFIQMEFCDKGTLEQWIEKRRGEKLDKVLALELFEQITKGVDYIHSKKLIHRDLKPSNIFLVDTKQVKIGDFGLVTSLKNDGKRTRSKGTLRYMSPEQISSQDYGKEVDLYALGLILAELLHVCDTAFETSKFFTDLRDGIISDIFDKKEKTLLQKLLSKKPEDRPNTSEILRTLTVWKKSPEKNERHTC [D331A]
MAGDLSAGFFMEELNTYRQKQGVVLKYQELPNSGPPHDRRFTFQVIIDGREFPEGEGRSKKEAKNAAAKLAVEILNKEKKAVSPLLLTTTNSSEGLSMGNYIGLINRIAQKKRLTVNYEQCASGVHGPEGFHYKCKMGQKEYSIGTGSTKQEAKQLAAKLAYLQILSEETSVKSDYLSSGSFATTCESQSNSLVTSTLASESSSEGDFSADTSEINSNSDSLNSSSLLMNGLRNNQRKAKRSLAPRFDLPDMKETKYTVDKRFGMDFKEIELIGSGGFGQVFKAKHRIDGKTYVIKRVKYNNEKAEREVKALAKLDHVNIVHYNGCWDGFDADPETSDDSLESSDYDPENSKNSSRSKTKCLFIQMEFCDKGTLEQWIEKRRGEKLDKVLALELFEQITKGVDYIHSKKLIHRDLKPSNIFLVDTKQVKIGDFGLVTSLKNDGKRTRSKGTLRYMSPEQISSQDYGKEVDLYALGLILAELLHVCDTAFETSKFFTDLRDGIISDIFDKKEKTLLQKLLSKKPEDRPNTSEILRTLTVWKKSPEKNERHTC [Y332A]
MAGDLSAGFFMEELNTYRQKQGVVLKYQELPNSGPPHDRRFTFQVIIDGREFPEGEGRSKKEAKNAAAKLAVEILNKEKKAVSPLLLTTTNSSEGLSMGNYIGLINRIAQKKRLTVNYEQCASGVHGPEGFHYKCKMGQKEYSIGTGSTKQEAKQLAAKLAYLQILSEETSVKSDYLSSGSFATTCESQSNSLVTSTLASESSSEGDFSADTSEINSNSDSLNSSSLLMNGLRNNQRKAKRSLAPRFDLPDMKETKYTVDKRFGMDFKEIELIGSGGFGQVFKAKHRIDGKTYVIKRVKYNNEKAEREVKALAKLDHVNIVHYNGCWDGFDYAPETSDDSLESSDYDPENSKNSSRSKTKCLFIQMEFCDKGTLEQWIEKRRGEKLDKVLALELFEQITKGVDYIHSKKLIHRDLKPSNIFLVDTKQVKIGDFGLVTSLKNDGKRTRSKGTLRYMSPEQISSQDYGKEVDLYALGLILAELLHVCDTAFETSKFFTDLRDGIISDIFDKKEKTLLQKLLSKKPEDRPNTSEILRTLTVWKKSPEKNERHTC [D333A]
